Assay results as given in patent US20120034232A1 (INNATE PHARMA, published 2012).

What was measured:
[1] = biological target: recombinant human His-tagged TLR3 extracellular domain recombinant protein (R&D systems, #1487-TR-050) (human) (UniProt O15455); test: SPR (Biacore T100), rhTLR3 immobilised on CM5 chip, antibody in solution, bivalent affinity, pH 5.6, mean of 2 or 3 experiments
[2] = biological target: recombinant human His-tagged TLR3 extracellular domain recombinant protein (R&D systems, #1487-TR-050) (human) (UniProt O15455); test: SPR (Biacore T100), rhTLR3 immobilised on CM5 chip, antibody in solution, bivalent affinity, pH 7.2, mean of 2 or 3 experiments
[3] = biological target: T1, human TLR3 expressed in cells (293T cells stably transfected with pUNO-hTLR3); endogenous TLR3 of human … (human, UniProt O15455 24-904); test: cell-based or functional assay
[4] = biological target: T1, human TLR3 expressed in cells (293T …); test: cell-based or functional assay; remark: listed apart in the source
[5] = biological target: T2, recombinant human His-tagged TLR3 extracellular domain recombinant protein (R&D systems, #1487-TR-050) (human, UniProt O15455 24-704); test: ELISA, His-tagged rec TLR3 (reference: His-tagged rec TLR4) on Ni-NTA plates, hybridoma supernatant
T2 construct: Bought protein; also called recombinant human TLR3; rhTLR3; not shown: His tag

| Molecule | Kd [1] | Kd [2] | IC50 of inhibition of luciferase expression, polyAU 100 µg/ml [3] | IC50 of inhibition of luciferase expression in 293-huTLR3 cells, polyAU 300 µg/ml [4] | ratio of DO obtained in TLR3 ELISA to DO obtained in TLR4 ELISA [5] |
| --- | --- | --- | --- | --- | --- |
| anti-TLR3 antibody TLR3.7 (eBiosciences) | 9 nM | 45 nM |  |  |  |
| anti-TLR3 monoclonal antibody 23C8 (antibody, V domains shown) VH: EVQLQQSGPELVKPGASVKISCKASGYSFTGYFMHWVKQSHVKSLEWIGRINPYNGATSYNQNFKDKASLTVDKSSSTSYMELHSLTSEDSAVYYCVRDDGGNYPFDYWGQGTTLTVS VL: DIQMTQSPASLSASVGETVTITCRASENIYSYLAWYQQKQGKSPQLLVYYAKTLAEGVPSRFSGSGTGTQFSLKINSLQPEDFGSYYCQHHYGTPYTFGGGTKLEIK |  |  | < 5 µg/mL | 1.83 µg/mL | > 10 |
| anti-TLR3 monoclonal antibody 28F11 (antibody, V domains shown) VH: EVQLQQSGPELVKPGASVKISCKASGYSFTGYYIHWVKQSHVKSLEWIGRINPYYGATSYNQNFKDKANLTVDKSSSTAYMELHSLTSDDSAVYYCARSTKLGYLDYWGQGTTLTVS VL: DIQMTQSPASLSASVGETVTITCRASENIYSNLAWYQQKQGKSPQLLIYNAKTLAEGVPSRFSGSGSGTQYFLKINSLQPEDFGSYYCQHHYGTPFTFGGGTKLEIK |  |  |  | 5.56 µg/mL | > 10 |
| anti-TLR3 monoclonal antibody 29H3 (antibody, V domains shown, also called 29H3.7; CNCM I-4187) VH: DVQLQESGPDLVKPSQSLSLTCTVTGYSITSGYSWHWIRQFLGNKLEWMGYIHYSGITNYNPSLRSRISFTRDTSKNQFFLQLNSVTTEDTATYYCARDGYYGMDYWGQGTSVTVS VL: DIVMTQSQKFMSTSVGDRVSITCKASQNVRTSVAWYQQKPGQSPKALIYLASNRHTGVPDRFTGSGSGTDFTLTVSNIQSEDLADYFCLQHWNYPYTFGGGTKLEIK |  |  |  |  | > 10 |
| anti-TLR3 monoclonal antibody 34A3 (antibody, V domains shown) VH: EIQLQQSGPELVKPGASVKVSCKASGYVFTTYSIYWVKQSHGKSLEWIGYIDPYNGDTSYNQKFKGKATLTVDKSSSTAYMHLNSLTSEDSTVYYCAREGNYYGYFDYWGQGTTLTVS VL: QIVLTQSPALMSASPGEKVTMTCSASSSVSYMFWYQQKPRSSPKPWIYLTSNLASGVPARFSGSGSGTSYSLTISSMEAEDAATYYCQQWTGNPPTFGGGTKLEIK |  |  | < 5 µg/mL |  |  |
